B1: Geminin (Homo sapiens), O75496 (parent)
chain: MNPSMKQKQEEIKENIKNSSVPRRTLKMIQPSASGSLVGRENELSAGLSKRKHRNDHLTSTTSSPGVIVPESSENKNLGGVTQESFDLMIKENPSSQYWKEVAEKRRKALYEALKENEKLHKEIEQKDNEIARLKKENKELAEVAEHVQYMAELIERLNGEPLDNFESLDNQEFDSEEETVEDSLVEDSEIGTCAEGTVSSSTDAKPCI
partner: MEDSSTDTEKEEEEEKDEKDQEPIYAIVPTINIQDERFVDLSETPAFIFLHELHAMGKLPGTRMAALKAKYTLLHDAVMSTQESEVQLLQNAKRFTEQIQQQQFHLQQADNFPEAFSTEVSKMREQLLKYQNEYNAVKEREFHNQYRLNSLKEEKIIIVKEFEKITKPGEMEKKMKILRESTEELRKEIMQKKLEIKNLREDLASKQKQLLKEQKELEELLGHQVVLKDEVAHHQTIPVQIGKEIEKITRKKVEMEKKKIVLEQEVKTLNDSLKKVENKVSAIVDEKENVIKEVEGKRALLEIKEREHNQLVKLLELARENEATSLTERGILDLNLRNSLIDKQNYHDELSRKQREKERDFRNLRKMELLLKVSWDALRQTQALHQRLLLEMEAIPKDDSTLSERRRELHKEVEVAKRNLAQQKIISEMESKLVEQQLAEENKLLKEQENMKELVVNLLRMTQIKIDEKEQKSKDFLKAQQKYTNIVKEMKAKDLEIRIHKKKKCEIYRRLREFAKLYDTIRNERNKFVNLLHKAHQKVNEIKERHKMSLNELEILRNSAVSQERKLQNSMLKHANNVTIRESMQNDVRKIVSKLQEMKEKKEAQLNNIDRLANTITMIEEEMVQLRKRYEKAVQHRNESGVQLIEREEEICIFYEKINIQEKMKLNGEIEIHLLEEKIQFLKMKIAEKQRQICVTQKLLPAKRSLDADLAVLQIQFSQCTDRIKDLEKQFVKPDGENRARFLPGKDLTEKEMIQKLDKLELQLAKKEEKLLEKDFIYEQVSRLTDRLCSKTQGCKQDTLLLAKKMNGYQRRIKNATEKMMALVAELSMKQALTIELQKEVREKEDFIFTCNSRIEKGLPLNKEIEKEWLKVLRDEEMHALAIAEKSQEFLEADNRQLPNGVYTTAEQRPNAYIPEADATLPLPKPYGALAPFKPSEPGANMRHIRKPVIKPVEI
B2: Vacuolar-sorting protein SNF8 (Homo sapiens), Q96H20 (parent)
chain: MHRRGVGAGAIAKKKLAEAKYKERGTVLAEDQLAQMSKQLDMFKTNLEEFASKHKQEIRKNPEFRVQFQDMCATIGVDPLASGKGFWSEMLGVGDFYYELGVQIIEVCLALKHRNGGLITLEELHQQVLKGRGKFAQDVSQDDLIRAIKKLKALGTGFGIIPVGGTYLIQSVPAELNMDHTVVLQLAEKNGYVTVSEIKASLKWETERARQVLEHLLKEGLAWLDLQAPGEAHYWLPALFTDLYSQEITAEEAREALP
partner: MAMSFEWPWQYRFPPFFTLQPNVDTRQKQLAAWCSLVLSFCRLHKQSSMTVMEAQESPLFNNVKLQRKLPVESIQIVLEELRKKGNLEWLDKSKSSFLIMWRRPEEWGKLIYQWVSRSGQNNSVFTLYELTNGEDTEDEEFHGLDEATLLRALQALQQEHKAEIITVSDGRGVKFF
B3: Kinesin-associated protein 3 (Homo sapiens), Q92845 (parent)
chain: MQGEDARYLKRKVKGGNIDVHPSEKALIVHYEVEATILGEMGDPMLGERKECQKIIRLKSLNANTDITSLARKVVEECKLIHPSKLNEVEQLLYYLQNRRDSLSGKEKKEKSSKPKDPPPFEGMEIDEVANINDMDEYIELLYEDIPDKVRGSALILQLARNPDNLEELLLNETALGALARVLREDWKQSVELATNIIYIFFCFSSFSQFHGLITHYKIGALCMNIIDHELKRHELWQEELSKKKKAVDEDPENQTLRKDYEKTFKKYQGLVVKQEQLLRVALYLLLNLAEDTRTELKMRNKNIVHMLVKALDRDNFELLILVVSFLKKLSIFMENKNDMVEMDIVEKLVKMIPCEHEDLLNITLRLLLNLSFDTGLRNKMVQVGLLPKLTALLGNDNYKQIAMCVLYHISMDDRFKSMFAYTDCIPQLMKMLFECSDERIDLELISFCINLAANKRNVQLICEGNGLKMLMKRALKFKDPLLMKMIRNISQHDGPTKNLFIDYVGDLAAQISNDEEEEFVIECLGTLANLTIPDLDWELVLKEYKLVPYLKDKLKPGAAEDDLVLEVVIMIGTVSMDDSCAALLAKSGIIPALIELLNAQQEDDEFVCQIIYVFYQMVFHQATRDVIIKETQAPAYLIDLMHDKNNEIRKVCDNTLDIIAEYDEEWAKKIQSEKFRWHNSQWLEMVESRQMDESEQYLYGDDRIEPYIHEGDILERPDLFYNSDGLIASEGAISPDFFNDYHLQNGDVVGQHSFPGSLGMDGFGQPVGILGRPATAYGFRPDEPYYYGYGS
partner: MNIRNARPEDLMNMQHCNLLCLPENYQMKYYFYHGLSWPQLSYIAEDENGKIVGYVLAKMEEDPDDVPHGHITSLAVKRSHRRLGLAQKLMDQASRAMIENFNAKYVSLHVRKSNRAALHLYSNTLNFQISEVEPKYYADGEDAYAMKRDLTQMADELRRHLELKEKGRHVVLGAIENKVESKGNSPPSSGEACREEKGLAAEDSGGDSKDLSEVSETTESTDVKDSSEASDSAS
B4: E3 ubiquitin-protein ligase TRIM17 (Homo sapiens), Q9Y577 (parent)
chain: MEAVELARKLQEEATCSICLDYFTDPVMTTCGHNFCRACIQLSWEKARGKKGRRKRKGSFPCPECREMSPQRNLLPNRLLTKVAEMAQQHPGLQKQDLCQEHHEPLKLFCQKDQSPICVVCRESREHRLHRVLPAEEAVQGYKLKLEEDMEYLREQITRTGNLQAREEQSLAEWQGKVKERRERIVLEFEKMNLYLVEEEQRLLQALETEEEETASRLRESVACLDRQGHSLELLLLQLEERSTQGPLQMLQDMKEPLSRKNNVSVQCPEVAPPTRPRTVCRVPGQIEVLRGFLEDVVPDATSAYPYLLLYESRQRRYLGSSPEGSGFCSKDRFVAYPCAVGQTAFSSGRHYWEVGMNITGDALWALGVCRDNVSRKDRVPKCPENGFWVVQLSKGTKYLSTFSALTPVMLMEPPSHMGIFLDFEAGEVSFYSVSDGSHLHTYSQATFPGPLQPFFCLGAPKSGQMVISTVTMWVKG
partner: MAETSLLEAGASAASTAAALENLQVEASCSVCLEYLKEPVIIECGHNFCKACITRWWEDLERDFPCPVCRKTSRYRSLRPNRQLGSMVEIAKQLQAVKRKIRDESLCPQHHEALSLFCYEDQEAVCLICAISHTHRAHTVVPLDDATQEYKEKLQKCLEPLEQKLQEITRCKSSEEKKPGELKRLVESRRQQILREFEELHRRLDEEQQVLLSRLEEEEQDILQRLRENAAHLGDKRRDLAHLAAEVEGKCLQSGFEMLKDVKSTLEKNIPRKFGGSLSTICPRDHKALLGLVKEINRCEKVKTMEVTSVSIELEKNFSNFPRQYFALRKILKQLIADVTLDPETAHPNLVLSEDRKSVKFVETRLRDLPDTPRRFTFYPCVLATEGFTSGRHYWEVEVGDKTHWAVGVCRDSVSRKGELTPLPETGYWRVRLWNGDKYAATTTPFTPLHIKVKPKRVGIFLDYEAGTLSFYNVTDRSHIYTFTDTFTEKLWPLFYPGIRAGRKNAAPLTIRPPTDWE
B5: UPF0462 protein C4orf33 (Homo sapiens), Q8N1A6 (parent)
chain: MDFKIEHTWDGFPVKHEPVFIRLNPGDRGVMMDISAPFFRDPPAPLGEPGKPFNELWDYEVVEAFFLNDITEQYLEVELCPHGQHLVLLLSGRRNVWKQELPLSFRMSRGETKWEGKAYLPWSYFPPNVTKFNSFAIHGSKDKRSYEALYPVPQHELQQGQKPDFHCLEYFKSFNFNTLLGEEWKQPESDLWLIEKCDI
partner: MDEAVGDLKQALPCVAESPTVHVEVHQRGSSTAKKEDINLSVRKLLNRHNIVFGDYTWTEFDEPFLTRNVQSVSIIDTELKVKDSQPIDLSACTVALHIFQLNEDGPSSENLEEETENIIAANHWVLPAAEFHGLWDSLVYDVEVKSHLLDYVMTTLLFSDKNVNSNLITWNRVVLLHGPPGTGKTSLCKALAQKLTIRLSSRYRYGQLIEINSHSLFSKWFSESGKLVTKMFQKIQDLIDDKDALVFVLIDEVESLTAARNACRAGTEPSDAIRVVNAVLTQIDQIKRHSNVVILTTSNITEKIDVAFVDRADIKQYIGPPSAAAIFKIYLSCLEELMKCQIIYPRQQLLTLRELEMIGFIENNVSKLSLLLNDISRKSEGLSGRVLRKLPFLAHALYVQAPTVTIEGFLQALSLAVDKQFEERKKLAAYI
B6: Four and a half LIM domains protein 5 (Homo sapiens), Q5TD97 (parent)
chain: MTTAHFYCQYCTASLLGKKYVLKDDSPYCVTCYDRVFSNYCEECKKPIESDSKDLCYKDRHWHEGCFKCTKCNHSLVEKPFAAKDERLLCTECYSNECSSKCFHCKRTIMPGSRKMEFKGNYWHETCFVCENCRQPIGTKPLISKESGNYCVPCFEKEFAHYCNFCKKVITSGGITFCDQLWHKECFLCSGCRKDLCEEQFMSRDDYPFCVDCYNHLYANKCVACSKPISGLTGAKFICFQDSQWHSECFNCGKCSVSLVGKGFLTQNKEIFCQKCGSGMDTDI
partner: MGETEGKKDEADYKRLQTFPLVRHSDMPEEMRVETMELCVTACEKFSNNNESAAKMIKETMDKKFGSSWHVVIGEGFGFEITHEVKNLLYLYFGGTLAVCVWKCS

Variants of: B1
Settings: with cc146_human CCDC146, Q8IYE0

| Variant | effect of a mutation on the interaction |
| --- | --- |
| N15H | with no effect |

Variants of: B2
Settings: with vps25_human VPS25, Q9BRG1

| Variant | effect of a mutation on the interaction |
| --- | --- |
| Q185R | with no effect |
| A17T | with no effect |

Variants of: B3
Settings: with naa10_human NAA10, P41227

| Variant | effect of a mutation on the interaction |
| --- | --- |
| F434C | with no effect |
| E167K | with no effect |

Variants of: B4
Settings: with tri39_human TRIM39, Q9HCM9

| Variant | effect of a mutation on the interaction |
| --- | --- |
| E173K | with no effect |
| T30A | disrupting interaction strength |

Variants of: B5
Settings: with pch2_human TRIP13, Q15645

| Variant | effect of a mutation on the interaction |
| --- | --- |
| H166R | with no effect |

Variants of: B6
Settings: with dnal4_human DNAL4, O96015

| Variant | effect of a mutation on the interaction |
| --- | --- |
| R60W | with no effect |
| R204G | with no effect |
| D24Y | with no effect |

From IntAct's records for PubMed 31515488
